Laboratory results: patent US20190282654A1 (OHIO STATE INNOVATION FOUNDATION, published 2019)
Square brackets hold non-standard residues; d marks the D form. Ends that are not written are not given here. 2Nal = N[C@@H](Cc1ccc2ccccc2c1)C(=O)O

B1: RRRRΦFCALDWSWLQC (peptide)
peptide: RRRR[2Nal]FCALDWSWLQC
modifications: cysteine pairing not given here
B2: RRRRΦFTALDWSWLQT (peptide)
peptide: RRRR[2Nal]FTALDWSWLQT

Target: T1, GST-NEMO(1-196) (UniProt Q9Y6K9 1-196)
T1 construct: range 1-196; Expressed in E. coli from pGEX4T3-GST-NEMO(1-196) and purified on glutathione-Sepharose; Used with the GST tag in the HTRF assay (30 nM); also called Recombinant GST-NEMO; NF-κB essential modifier; not shown: glutathione S-transferase (GST) tag encoded by the pGEX4T3 vector
Test: HTRF competition, NEMO-IKK interaction (FIG. 6)
Procedure: The plate was incubated for 2 h at room temperature. […] The data was analyzed using GraphPad Prism 6.0 and IC₅₀ values were obtained by fitting the data to the dose-response inhibition curves.

T1 sequence (Q9Y6K9 1-196): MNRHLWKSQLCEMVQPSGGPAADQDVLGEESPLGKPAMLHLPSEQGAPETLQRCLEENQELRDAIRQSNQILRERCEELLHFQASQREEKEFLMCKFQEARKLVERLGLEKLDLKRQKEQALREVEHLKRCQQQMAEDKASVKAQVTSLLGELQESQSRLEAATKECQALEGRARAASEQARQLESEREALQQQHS

Binder | IC50 [nM]
B1 | 1400
B2 | 1600
